Laboratory results as given in patent publication US20150274820A1 (ESBATECH AN ALCON BIOMEDICAL RESEARCH UNIT, published 2015).
Values joined by “and” are separate entries in the source; they are usually repeats but may differ in a detail not shown here. Equal entries are not always repeated.

Legend:
[1] = target: T1, recombinant human VEGF165 (human, UniProt P15692 27-191); assay: Biacore SPR, VEGF immobilized, pH 5
T1 construct: mature; Isoform VEGF165 of the entry; also called hVEGF165; hVEGF
Target sequence in this assay (P15692 other isoform, or with tags, fused parts or gaps): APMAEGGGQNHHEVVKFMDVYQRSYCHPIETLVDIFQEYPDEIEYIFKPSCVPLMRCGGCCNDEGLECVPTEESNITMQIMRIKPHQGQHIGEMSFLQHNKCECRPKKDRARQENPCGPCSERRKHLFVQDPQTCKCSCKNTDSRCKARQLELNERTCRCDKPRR

[2] = target: T1, recombinant human VEGF165; assay: Biacore SPR (FIG. 4c legend; differs from Table 10)
Protocol: For the surface plasmon resonance experiment, carboxymethylated dextran biosensor chips (CM4, GE Healthcare) were activated with N-ethyl-N′-(3-dimethylaminopropyl) carbodiimide hydrochloride and N-hydroxysuccinimide according to the supplier's instructions. Each of the 6 different VEGF forms, as exemplified above, was coupled to 1 of the 4 different flow cells on a CM4 sensor chip using a standard amine-coupling procedure. […] The 4th flow cell of each chip was treated similarly except no proteins were immobilized prior to blocking, and the flow cell was used as in-line reference. […] Dissociation of the anti-VEGF scFv from the VEGF on the CM4 chip was allowed to proceed for 10 min at 25° C. Sensorgrams were generated for each anti-VEGF scFv sample after in-line reference cell correction followed by buffer sample subtraction. The apparent dissociation rate constant (kd), the apparent association rate constant (kₐ) and the apparent dissociation equilibrium constant (KD) were calculated using one-to-one Langmuir binding model with BIAcore T100 evaluation Software version 1.1.
The present invention also discloses derivatives originating from the lead anti-VEGF scFv candidates, which are mentioned above.

[3] = target: T1, recombinant human VEGF165; assay: cell-based or functional assay
Target sequence in this assay (P15692 other isoform, or with tags, fused parts or gaps): as above

[4] = target: T1, recombinant human VEGF165; assay: Biacore SPR, VEGF immobilized, pH 5; remark: listed apart in the source
Target sequence in this assay (P15692 other isoform, or with tags, fused parts or gaps): as above

[5] = target: T2, recombinant human VEGF110 (human, UniProt P15692-4 27-136, limits assumed); assay: Biacore SPR, VEGF immobilized, pH 5
T2 construct: Made in house; also called hVEGF110
T2 sequence (looked up): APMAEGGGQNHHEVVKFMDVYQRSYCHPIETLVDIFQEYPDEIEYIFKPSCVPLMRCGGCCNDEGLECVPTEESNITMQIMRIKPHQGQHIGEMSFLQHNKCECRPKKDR

[6] = target: T1, recombinant human VEGF165; assay: Biacore SPR, VEGF immobilized, pH 5; remark: listed apart in the source
Target sequence in this assay (P15692 other isoform, or with tags, fused parts or gaps): as the sequence (P15692 other isoform, or with tags, fused parts or gaps) above

[7] = target: T3, recombinant human VEGF121 (human, UniProt P15692 27-147); assay: Biacore SPR, VEGF immobilized, pH 5
T3 construct: mature; Isoform VEGF121 of the entry; also called hVEGF121
T3 sequence (looked up): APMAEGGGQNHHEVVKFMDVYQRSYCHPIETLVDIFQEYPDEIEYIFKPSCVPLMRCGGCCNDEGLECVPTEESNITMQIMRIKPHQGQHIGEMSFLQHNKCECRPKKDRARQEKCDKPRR

[8] = target: T1, recombinant human VEGF165; assay: Biacore SPR, VEGF immobilized, pH 7.4
Target sequence in this assay (P15692 other isoform, or with tags, fused parts or gaps): as the sequence (P15692 other isoform, or with tags, fused parts or gaps) above

[9] = target: T1, recombinant human VEGF165; assay: VEGFR2 competition ELISA: hVEGF165 coated on the plate, scFv pre-incubated with human VEGFR2/Fc chimera, bound VEGFR2/Fc detected with anti-human Fc-HRP, OD 450 nm; half-maximal inhibition
Protocol: After 30-60 min of incubation at room temperature, the mixtures were transferred to the human VEGF₁₆₅ immobilized plate and incubated for 90 min. […] Optical density at 450 nm (OD 450 nm) was measured using a Sunrise microplate reader (Tecan).

[10] = target: T1, recombinant human VEGF165; assay: cell-based or functional assay; remark: listed apart in the source
[11] = target: T3, recombinant human VEGF121; assay: Biacore SPR (FIG. 3b legend; differs from Table 9)
Protocol: In this example, the Biacore-binding ability of scFvs was tested and the binding affinity was measured using the exemplary surface plasmon resonance method with BIAcore™-T100. The VEGF proteins, tested for binding by these scFv candidates, in this example and later examples include purified Escherichia coli-expressed recombinant human VEGF₁₆₅ (PeproTech EC Ltd.), recombinant human VEGF₁₂₁ (PeproTech EC Ltd.), recombinant human VEGF₁₁₀ (ESBATech AG), recombinant murine VEGF₁₆₄ (PeproTech EC Ltd.), recombinant rat VEGF₁₆₄ (Biovision), recombinant rabbit VEGF₁₁₀ (ESBATech AG), and recombinant human PLGF (PeproTech EC Ltd.). For the surface plasmon resonance experiment, carboxymethylated dextran biosensor chips (CM4, GE Healthcare) were activated with N-ethyl-N′-(3-dimethylaminopropyl) carbodiimide hydrochloride and N-hydroxysuccinimide according to the supplier's instructions. Each of the 6 different VEGF forms, as exemplified above, was coupled to 1 of the 4 different flow cells on a CM4 sensor chip using a standard amine-coupling procedure. […] The apparent dissociation rate constant (kd), the apparent association rate constant (kₐ) and the apparent dissociation equilibrium constant (KD) were calculated using one-to-one Langmuir binding model with BIAcore T100 evaluation Software version 1.1.

recombinant human PLGF = target: T4, recombinant human PLGF (human, UniProt P49763-2 19-149, limits assumed); assay: Biacore SPR, PlGF immobilized, pH 5
T4 construct: Negative control; also called PIGF
T4 sequence (looked up): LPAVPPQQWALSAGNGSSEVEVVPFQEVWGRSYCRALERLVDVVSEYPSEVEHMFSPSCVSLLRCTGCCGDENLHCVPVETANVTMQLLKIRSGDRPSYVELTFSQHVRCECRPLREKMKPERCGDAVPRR

[12] = target: recombinant rat VEGF164 (rat) (UniProt P16612); assay: Biacore SPR, VEGF immobilized, pH 5
[13] = target: recombinant murine VEGF164 (mouse) (UniProt Q00731); assay: Biacore SPR, VEGF immobilized, pH 5
[14] = target: T1, recombinant human VEGF165; assay: cell-based or functional assay; remark: listed apart in the source

B1: 578 wildtype C-His (scFv, not shown: small tags and cut ends)
scFv: DVVMTQTPSSVSAAVGDTVTINCQASEIIHSWLAWYQQKPGQPPKLLIYLASTLASGVPSRFKGSGSGTQFTLTISDLECADAAIYYCQNVYLASTNGANFGGGTEVVVKGGGGSGGGGSGGGGSGGGGSQSVEESGGRLVTPGTPLTLTCTASGFSLTDYYYMTWVRLAPGKGLEYIGFIDPDDDPYYATWAKGRFTISRTSTTVNLKMTSPTTEDTATYFCAGGDHNSGWGLDIWGPGTLVTVSL
notes: Rabbit wild type single chain
For B1, the Kd [1] was 0.2 nM, the koff [1] was 0.000169 s⁻¹ and the kon [1] was 834000 M⁻¹ s⁻¹. The kon [2] was 845000 M⁻¹ s⁻¹.

B2: 578-max (scFv)
scFv: EIVMTQSPSTLSASVGDRVIITCQASEIIHSWLAWYQQKPGKAPKLLIYLASTLASGVPSRFSGSGSGTQFTLTISSLQPDDFATYYCQNVYLASTNGANFGQGTKLTVLGGGGGSGGGGSGGGGSGGGGSEVQLVESGGGLVQPGGSLRLSCTASGFSLTDYYYMTWVRQAPGKGLEWVGFIDPDDDPYYATWAKGRFTISRDTSKNTVYLQMNSLRAEDTAVYYCAGGDHNSGWGLDIWGQGTLVTVSS
notes: also called EP578max; #821
With B2 the “Rel. activity in HUVEC assay (EC50Luc[nM]/EC50test[nM])” value [3] was 1.48, the koff [4] was 0.000307 s⁻¹ and the kon [4] was 700000 M⁻¹ s⁻¹. It also gave a koff [5] of 0.000722 s⁻¹, a kon [5] of 523000 M⁻¹ s⁻¹ and a koff [6] of 0.000307 s⁻¹. The kon [6] was 700000 M⁻¹ s⁻¹, the koff [7] was 0.000558 s⁻¹ and the kon [7] was 587000 M⁻¹ s⁻¹. For the same binder, the koff [8] was 3.76e-05 s⁻¹, the kon [8] was 1.58e+06 M⁻¹ s⁻¹ and the “EC50 (read off the curve)” value [9] was roughly 0.4 nM. The “Rel. activity in HUVEC assay (EC50Luc[nM]/EC50test[nM]) hVEGF” value [10] was 0.94 and 1 and 1.2, the koff [1] was 0.000307 s⁻¹ and the kon [1] was 700000 M⁻¹ s⁻¹. The Kd [11] was 0.095 nM, the binding result (recombinant human PLGF) was “no binding” and the koff [12] was 0.000528 s⁻¹. For the same binder, the kon [12] was 883000 M⁻¹ s⁻¹, the koff [13] was 0.00044 s⁻¹ and the kon [13] was 1.03e+06 M⁻¹ s⁻¹. For the same binder, the “EC50 in HUVEC assay (FIG. 8d)” value [14] was 0.103 nM.
